Measurements from paper PMC6820745, “Structural and thermodynamic basis for the recognition of the substrate-binding cleft on hen egg lysozyme by a single-domain antibody” (Scientific Reports, 2019).
Each block holds one binder with its values, some of them ahead of it.

Assays:
Conditions in all cases: both partners purified
hen egg lysozyme [1] = target: T1, hen egg lysozyme (hen, UniProt P00698 19-147); assay: SPR; HEL immobilised on CM5 chip (200 RU), VHH flowed over, multi-cycle, 30 °C, PBS with 0.005% Tween 20, global fit to a 1:1 binding model
T1 construct: hen egg lysozyme (HEL), bought, used without further purification; also called HEL; source: bought: Wako Pure Chemical (Cat. No. 126-02671)
T1 sequence (P00698 19-147): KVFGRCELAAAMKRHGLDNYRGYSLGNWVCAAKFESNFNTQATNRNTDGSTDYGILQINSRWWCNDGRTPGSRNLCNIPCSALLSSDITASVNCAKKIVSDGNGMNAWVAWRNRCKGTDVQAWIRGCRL

hen egg lysozyme [2] = target: T1, hen egg lysozyme; assay: ITC; iTC200, 25 °C, PBS; VHH (10 µM) in the cell titrated with HEL (100 µM); 1:1 binding model; two independent measurements
hen egg lysozyme [3] = target: T1, hen egg lysozyme; assay: SPR; HEL immobilised on CM5 chip (200 RU), VHH flowed over, multi-cycle, 26 °C, PBS with 0.005% Tween 20, global fit to a 1:1 binding model
hen egg lysozyme [4] = target: T1, hen egg lysozyme; assay: SPR; HEL immobilised on CM5 chip (200 RU), VHH flowed over, multi-cycle, 18 °C, PBS with 0.005% Tween 20, global fit to a 1:1 binding model
hen egg lysozyme [5] = target: T1, hen egg lysozyme; assay: SPR; HEL immobilised on CM5 chip (200 RU), VHH flowed over, multi-cycle, 14 °C, PBS with 0.005% Tween 20, global fit to a 1:1 binding model
hen egg lysozyme [6] = target: T1, hen egg lysozyme; assay: SPR; HEL immobilised on CM5 chip (200 RU), VHH flowed over, multi-cycle, 22 °C, PBS with 0.005% Tween 20, global fit to a 1:1 binding model
hen egg lysozyme [7] = target: T1, hen egg lysozyme; assay: SPR; HEL immobilised on CM5 chip (200 RU), VHH flowed over, multi-cycle, 10 °C, PBS with 0.005% Tween 20, global fit to a 1:1 binding model
hen egg lysozyme [8] = target: T2, hen egg lysozyme (Gallus gallus (hen), UniProt P00698); assay: SPR; Biacore T200; HEL immobilised on CM5 chip (200 RU); VHH flowed over; 25 °C; PBS with 0.005% Tween 20; global fit to a 1:1 binding model
T2 construct: hen egg lysozyme (lysozyme C), bought from Wako Pure Chemical; also called HEL; source: bought: Wako Pure Chemical (Cat. No. 126-02671), used without further purification
T2 sequence (P00698 19-147): as above
In short: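 Binding of the His6-tagged single-domain antibody, expressed in E. coli BL21(DE3) and purified by Ni-NTA and size-exclusion chromatography, was measured by surface plasmon resonance on a Biacore T200 against hen egg lysozyme immobilised on a CM5 chip (200 RU). Runs were at 25 °C in PBS with 0.005% Tween 20, with 300 s contact, 600 s dissociation and regeneration in 1.0 M Arg-HCl pH 4.4. Antibody concentrations were adjusted per mutant. Kd, kon and koff came from global fitting to a 1:1 binding model in BiaEvaluation.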

hen egg lysozyme [9] = target: T2, hen egg lysozyme; assay: ITC; iTC200; 25 °C; PBS; VHH (10 uM) in the cell titrated with HEL (100 uM); 1:1 binding model
hen egg lysozyme [10] = target: T2, hen egg lysozyme; assay: SPR; HEL immobilised; measured at several temperatures; van't Hoff analysis (non-linear regression); PBS with 0.005% Tween 20; KD given for 25 °C from the van't Hoff free energy
hen egg lysozyme [11] = target: T2, hen egg lysozyme; assay: SPR; as a1, but KD from the responses in equilibrium (Scatchard plot, 1:1 model); HEL immobilised; 25 °C; PBS with 0.005% Tween 20
hen egg lysozyme [12] = target: T1, hen egg lysozyme; assay: SPR; HEL immobilised on CM5 chip (200 RU), VHH flowed over, multi-cycle, 14 °C, PBS with 0.005% Tween 20, global fit to a 1:1 binding model; remark: listed apart in the source
hen egg lysozyme [13] = target: T1, hen egg lysozyme; assay: SPR; HEL immobilised on CM5 chip (200 RU), VHH flowed over, multi-cycle, 26 °C, PBS with 0.005% Tween 20, global fit to a 1:1 binding model; remark: listed apart in the source
hen egg lysozyme [14] = target: T1, hen egg lysozyme; assay: SPR; HEL immobilised on CM5 chip (200 RU), VHH flowed over, 10 °C, PBS with 0.005% Tween 20, steady-state responses (Scatchard plot), 1:1 binding model
hen egg lysozyme [15] = target: T1, hen egg lysozyme; assay: SPR; HEL immobilised on CM5 chip (200 RU), VHH flowed over, multi-cycle, 18 °C, PBS with 0.005% Tween 20, global fit to a 1:1 binding model; remark: listed apart in the source
hen egg lysozyme [16] = target: T1, hen egg lysozyme; assay: SPR; HEL immobilised on CM5 chip (200 RU), VHH flowed over, multi-cycle, 10 °C, PBS with 0.005% Tween 20, global fit to a 1:1 binding model; remark: listed apart in the source
hen egg lysozyme [17] = target: T1, hen egg lysozyme; assay: SPR; HEL immobilised on CM5 chip (200 RU), VHH flowed over, multi-cycle, 22 °C, PBS with 0.005% Tween 20, global fit to a 1:1 binding model; remark: listed apart in the source
hen egg lysozyme [18] = target: T1, hen egg lysozyme; assay: SPR; HEL immobilised on CM5 chip (200 RU), VHH flowed over, 26 °C, PBS with 0.005% Tween 20, steady-state responses (Scatchard plot), 1:1 binding model
hen egg lysozyme [19] = target: T1, hen egg lysozyme; assay: SPR; HEL immobilised on CM5 chip (200 RU), VHH flowed over, 22 °C, PBS with 0.005% Tween 20, steady-state responses (Scatchard plot), 1:1 binding model
hen egg lysozyme [20] = target: T1, hen egg lysozyme; assay: SPR; HEL immobilised on CM5 chip (200 RU), VHH flowed over, 18 °C, PBS with 0.005% Tween 20, steady-state responses (Scatchard plot), 1:1 binding model
hen egg lysozyme [21] = target: T1, hen egg lysozyme; assay: SPR; HEL immobilised on CM5 chip (200 RU), VHH flowed over, 30 °C, PBS with 0.005% Tween 20, steady-state responses (Scatchard plot), 1:1 binding model
hen egg lysozyme [22] = target: T1, hen egg lysozyme; assay: SPR; HEL immobilised on CM5 chip (200 RU), VHH flowed over, 14 °C, PBS with 0.005% Tween 20, steady-state responses (Scatchard plot), 1:1 binding model

B1: D3-L11 (wild type), VHH specific for hen egg lysozyme (VHH)
VHH: DVQLVESGGGSVQAGGSLRLSCAASGSTDSIEYMTWFRQAPGKAREGVAALYTHTGNTYYTDSVKGRFTISQDKAKNMAYLRMDSVKSEDTAIYTCGATRKYVPVRFALDQSSYDYWGQGTQVTVSS
notes: also called WT; WT antibody; source: E. coli BL21(DE3), purified (Ni-NTA, SEC)
Kd (hen egg lysozyme [1]): 0.177 nM
koff (hen egg lysozyme [1]): 0.0015 s⁻¹
kon (hen egg lysozyme [1]): 8.48e+06 M⁻¹ s⁻¹
Kd (hen egg lysozyme [2]): 3.8 nM
stoichiometry N (hen egg lysozyme [2]): 0.88
Kd (hen egg lysozyme [3]): 0.127 nM
koff (hen egg lysozyme [3]): 0.000847 s⁻¹
kon (hen egg lysozyme [3]): 6.81e+06 M⁻¹ s⁻¹
Kd (hen egg lysozyme [4]): 0.0549 nM
koff (hen egg lysozyme [4]): 0.000274 s⁻¹
kon (hen egg lysozyme [4]): 4.99e+06 M⁻¹ s⁻¹
Kd (hen egg lysozyme [5]): 0.0395 nM
koff (hen egg lysozyme [5]): 0.000139 s⁻¹
kon (hen egg lysozyme [5]): 3.52e+06 M⁻¹ s⁻¹
Kd (hen egg lysozyme [6]): 0.0897 nM
koff (hen egg lysozyme [6]): 0.000492 s⁻¹
kon (hen egg lysozyme [6]): 5.48e+06 M⁻¹ s⁻¹
Kd (hen egg lysozyme [7]): 0.0267 nM
koff (hen egg lysozyme [7]): 7.52e-05 s⁻¹
kon (hen egg lysozyme [7]): 2.81e+06 M⁻¹ s⁻¹

B6: D3-L11 H54A (VHH)
VHH: DVQLVESGGGSVQAGGSLRLSCAASGSTDSIEYMTWFRQAPGKAREGVAALYTATGNTYYTDSVKGRFTISQDKAKNMAYLRMDSVKSEDTAIYTCGATRKYVPVRFALDQSSYDYWGQGTQVTVSS
notes: as the VHH chain of m2 with the stated change; source: E. coli BL21(DE3), purified (Ni-NTA, SEC)
Kd (hen egg lysozyme [8]): 2.65 nM
koff (hen egg lysozyme [8]): 0.00921 s⁻¹
kon (hen egg lysozyme [8]): 3.48e+06 M⁻¹ s⁻¹

B7: D3-L11 T55A (VHH)
VHH: DVQLVESGGGSVQAGGSLRLSCAASGSTDSIEYMTWFRQAPGKAREGVAALYTHAGNTYYTDSVKGRFTISQDKAKNMAYLRMDSVKSEDTAIYTCGATRKYVPVRFALDQSSYDYWGQGTQVTVSS
notes: as for B6
Kd (hen egg lysozyme [8]): 2.99 nM
koff (hen egg lysozyme [8]): 0.0113 s⁻¹
kon (hen egg lysozyme [8]): 3.77e+06 M⁻¹ s⁻¹

B10: D3-L11 E32A (VHH)
VHH: DVQLVESGGGSVQAGGSLRLSCAASGSTDSIAYMTWFRQAPGKAREGVAALYTHTGNTYYTDSVKGRFTISQDKAKNMAYLRMDSVKSEDTAIYTCGATRKYVPVRFALDQSSYDYWGQGTQVTVSS
notes: as for B6
Kd (hen egg lysozyme [8]): 1.87 nM
koff (hen egg lysozyme [8]): 0.012 s⁻¹
kon (hen egg lysozyme [8]): 6.43e+06 M⁻¹ s⁻¹

B11: D3-L11 P104A (VHH)
VHH: DVQLVESGGGSVQAGGSLRLSCAASGSTDSIEYMTWFRQAPGKAREGVAALYTHTGNTYYTDSVKGRFTISQDKAKNMAYLRMDSVKSEDTAIYTCGATRKYVAVRFALDQSSYDYWGQGTQVTVSS
notes: as for B6
Kd (hen egg lysozyme [8]): 13 nM
koff (hen egg lysozyme [8]): 0.226 s⁻¹
kon (hen egg lysozyme [8]): 1.74e+07 M⁻¹ s⁻¹
Kd (hen egg lysozyme [11]): 44.8 ± 19 nM

B12: D3-L11 Y52A (VHH)
VHH: DVQLVESGGGSVQAGGSLRLSCAASGSTDSIEYMTWFRQAPGKAREGVAALATHTGNTYYTDSVKGRFTISQDKAKNMAYLRMDSVKSEDTAIYTCGATRKYVPVRFALDQSSYDYWGQGTQVTVSS
notes: the substitution is still to be applied; source: E. coli BL21(DE3), purified (Ni-NTA, SEC)
Kd (hen egg lysozyme [2]): 1000 nM
stoichiometry N (hen egg lysozyme [2]): 0.93
Kd (hen egg lysozyme [12]): 26.5 nM
koff (hen egg lysozyme [12]): 0.0515 s⁻¹
kon (hen egg lysozyme [12]): 1.94e+06 M⁻¹ s⁻¹
Kd (hen egg lysozyme [13]): 52.9 nM
koff (hen egg lysozyme [13]): 0.144 s⁻¹
kon (hen egg lysozyme [13]): 2.72e+06 M⁻¹ s⁻¹
Kd (hen egg lysozyme [14]): 60.5 ± 4.3 nM
Kd (hen egg lysozyme [15]): 33 nM
koff (hen egg lysozyme [15]): 0.0731 s⁻¹
kon (hen egg lysozyme [15]): 2.21e+06 M⁻¹ s⁻¹
Kd (hen egg lysozyme [16]): 21.2 nM
koff (hen egg lysozyme [16]): 0.037 s⁻¹
kon (hen egg lysozyme [16]): 1.74e+06 M⁻¹ s⁻¹
Kd (hen egg lysozyme [17]): 40.8 nM
koff (hen egg lysozyme [17]): 0.102 s⁻¹
kon (hen egg lysozyme [17]): 2.5e+06 M⁻¹ s⁻¹
Kd (hen egg lysozyme [18]): 119 ± 9 nM
Kd (hen egg lysozyme [19]): 99.2 ± 7.4 nM
Kd (hen egg lysozyme [20]): 83.4 ± 6.5 nM
Kd (hen egg lysozyme [21]): 142 ± 10 nM
Kd (hen egg lysozyme [22]): 71.4 ± 5.3 nM

Further lines, results first:

Kd (hen egg lysozyme [8]): 0.129 nM
koff (hen egg lysozyme [8]): 0.000785 s⁻¹
kon (hen egg lysozyme [8]): 6.1e+06 M⁻¹ s⁻¹
dH (hen egg lysozyme [9]): -21.4 ± 0.6 kcal/mol
dH (van't Hoff) (hen egg lysozyme [10]): -17 kcal/mol
B2: D3-L11 (VHH)
VHH: DVQLVESGGGSVQAGGSLRLSCAASGSTDSIEYMTWFRQAPGKAREGVAALYTHTGNTYYTDSVKGRFTISQDKAKNMAYLRMDSVKSEDTAIYTCGATRKYVPVRFALDQSSYDYWGQGTQVTVSS
notes: VHH D3-L11 specific for HEL; Synthetic gene in pRA2 with a pelB signal peptide at the N-terminus and a His6-tag at the C-terminus; also called WT; WT antibody; source: E. coli BL21(DE3), purified (Ni-NTA, SEC)

Kd (hen egg lysozyme [8]): 1.63 nM
koff (hen egg lysozyme [8]): 0.0147 s⁻¹
kon (hen egg lysozyme [8]): 8.99e+06 M⁻¹ s⁻¹
B3: D3-L11 F107A (VHH)
VHH: DVQLVESGGGSVQAGGSLRLSCAASGSTDSIEYMTWFRQAPGKAREGVAALYTHTGNTYYTDSVKGRFTISQDKAKNMAYLRMDSVKSEDTAIYTCGATRKYVPVRAALDQSSYDYWGQGTQVTVSS
notes: as for B6

Kd (hen egg lysozyme [8]): 0.0911 nM
koff (hen egg lysozyme [8]): 0.000687 s⁻¹
kon (hen egg lysozyme [8]): 7.54e+06 M⁻¹ s⁻¹
B4: D3-L11 K101A (VHH)
VHH: DVQLVESGGGSVQAGGSLRLSCAASGSTDSIEYMTWFRQAPGKAREGVAALYTHTGNTYYTDSVKGRFTISQDKAKNMAYLRMDSVKSEDTAIYTCGATRAYVPVRFALDQSSYDYWGQGTQVTVSS
notes: as for B6

Kd (hen egg lysozyme [8]): 1.65 nM
koff (hen egg lysozyme [8]): 0.00183 s⁻¹
kon (hen egg lysozyme [8]): 1.11e+06 M⁻¹ s⁻¹
B5: D3-L11 R106A (VHH)
VHH: DVQLVESGGGSVQAGGSLRLSCAASGSTDSIEYMTWFRQAPGKAREGVAALYTHTGNTYYTDSVKGRFTISQDKAKNMAYLRMDSVKSEDTAIYTCGATRKYVPVAFALDQSSYDYWGQGTQVTVSS
notes: as for B6

Kd (hen egg lysozyme [8]): 0.156 nM
koff (hen egg lysozyme [8]): 0.000956 s⁻¹
kon (hen egg lysozyme [8]): 6.11e+06 M⁻¹ s⁻¹
B8: D3-L11 D115A (VHH)
VHH: DVQLVESGGGSVQAGGSLRLSCAASGSTDSIEYMTWFRQAPGKAREGVAALYTHTGNTYYTDSVKGRFTISQDKAKNMAYLRMDSVKSEDTAIYTCGATRKYVPVRFALDQSSYAYWGQGTQVTVSS
notes: as for B6

Kd (hen egg lysozyme [8]): 1.61 nM
koff (hen egg lysozyme [8]): 0.00831 s⁻¹
kon (hen egg lysozyme [8]): 5.17e+06 M⁻¹ s⁻¹
B9: D3-L11 S113A (VHH)
VHH: DVQLVESGGGSVQAGGSLRLSCAASGSTDSIEYMTWFRQAPGKAREGVAALYTHTGNTYYTDSVKGRFTISQDKAKNMAYLRMDSVKSEDTAIYTCGATRKYVPVRFALDQSAYDYWGQGTQVTVSS
notes: as for B6
